Measured values from the DeepSol protein solubility set.

Assay: soluble on expression in E. coli; label from the status in PepcDB or PDB records

| Sequence | soluble on expression in E. coli |
| --- | --- |
| MLTFNDNKAGMNGLDKEKITKVIEENTSASYSSFSKKQQSRIEEKVLEIKNRLQTATREERQKSEILMENLEMKLESSRDLSRDCVCIDMDAYFAAVEMRDNPALRTVPMAVGSSAMLSTSNYLARRFGVRAGMPGFISNKLCPSLTIVPGNYPKYTKVSRQFSQIFMEYDSDVGMMSLDEAFIDLTDYVASNTEKKTFKRHRFGGDCPCWLPRFDENENTLEDLKIEESICPKCEKSRKIYYDHVEFGTGREEAVREIRFRVEQLTGLTCSAGIASNFMLAKICSDLNKPNGQYVLENDKNAIMEFLKDLPIRKVGGIGRVCEAQLKAMDIQTVGDMNLKKNLYPLCFTPLSQESFLRTALGLPGRPSESDPRRKSISVERTFSPTSDFNILLEEHQEICRMLEEDVRKSGIVGGKTVTLKLKLSSFDVLTRSLTPSDVVKSLEDIQKFSLELLEKEKGKEIRLLGVRLSQLIFEEDEKKRSKTVCQKILKTITDKYKAMFSSIFLRHFISDHRVLE | not soluble |
| SLIENSHVKKDDIWPSGGQMTVKDLTAKYTEGGNAILENISFSISPGQRVGLLGRTGSGKSTLLSAFLRLLNTEGEIQIDGVSWDSITLEQWRKAFGVIPQKVFIFSGTFRKNLDPYEQWSDQEIWKVADEVGLRSVIEQFPGKLDFVLVDGGCVLSHGHKQLMCLARSVLSKAKILLLDEPSAHLDPVTYQIIRRTLKQAFADCTVILCEARIEAMLECDQFLVIEENKVRQYDSILRLYHYPADRFVAGFIGSPKMNFLPVKVTATAIDQVQVELPMPNRQQVWLPVESRDVQVGANMSLGIRPEHLLPSDIADVILEGEVQVVEQLGNETQIHIQIPSIRQNLVYRQNDVVLVEEGATFAIGLPPERCHLFREDGTACRRLHKEPGV | not soluble |
| MGSDKIHHHHHHMNPQTRKRQNLTAVYAALLQLMSQKPLSRISITELCQHAQVSRTYFYRNFANFDQIILAYQKQTILQYLRQLPRQSKVKLQVLMTQYFTLMQQMAATNALLIKNEKTQIFIQSFEAVFALLIKQDRIIGSSNTALRQPYYTAYFSGAVINMLVHWQQNGMVETPAYLAQQVTRFTLRDNESRS | not soluble |
| MGSDKIHHHHHHMCQGLMTHSRCVKSNTMFSIRIKAGRKAYEQIRDGGFSCDRISAFFAPAAGPRWLVATGFDLTLLKAGLLGRKKPVQLIGSSSGAWRFAAWVQPEAEKSYLNLMEAYIRIPYHKDDRAGIVLQNLINVVNSYIEDDALPFALAHKHYRLAVLTARVRHLVASESSWIQSSGLFLCFLMNALSRSTLDHFTERVVFYNGPNPPGFCLKSPFRGRFIQLNRTNFKHAILASGAIPLFVAGIRDIYGAPRGVYRDGGLVDYHQTYDFAESDDDMTLFFHHQERIIPGWFDKRLKHRRTPDVLLDHTLMVFPTEDFVSTLPLGKLPDREDFRSFMDDPATRIRNWQEAVRRSAPLGEQFFELVESGKLRSMVERI | not soluble |
| MARGIWGVDSAQVVTDQLFQCVRTELGYPKFWGRYLSEVPNVSEGLTRDEIVRIRNYGVKVLPIYNAFREAVGYANGQVAARNAVFHARRLGIPKNKLLFANIEDFFAVDAAWIAAWVETLYPTGYRPGLYADPTKGDFAAAYCEAVSRNNQVAVQAVIWSAAPRPGTTKEQKAPRYQPAAPPCSANVWVWQYGRDAEVCPVDTNLADRRLLDFLY | soluble |
| MGSDKIHHHHHHMTARNILSYSYEEYVEKITAFHGYPAPGVLIGGFMVDLAVKNLPEGILYDAICETRTCLPDAVQLLTPCTFGNGWLTVLPMGLFAVSLYDKFTGEGVRVFLDVEKMGPWQEIRNWFLKLKTKKEQDSERLFKEIREAGPDILELRNVKLKPGFLEKKHKGKIVLCPQCREAYPAQDGELCLSCQGGSPYL | not soluble |
| MGSDKIHHHHHHMSLPSIKTTNSYCVVLWCDQGSATINAPDRVVQVMAGDVVLAPHGAFVTGHGVVLPMAFPDFDGGEHTRRLHMGTAWSKRMIFEFSRSLLGETRPSECIAALFDDRARPPRVPEPQAARKVAQKLIAYPADQTPLLEFAQLHNISSRTLQRQFVASTGFTFSEWRAALRVSVAADLLAHDFRIGQVSQMVGFSATSSLTRAFKRHTGDTPSSFTSPRMHAVCEQQPPMIPATTTFARASDDIALWIYSGTATVTTPGYCRFMGAGETVTIPSGTSTRLDVSAGSVALPVPLAAAHDDLTLSDVLAASVNPLAAVELQRLSAQERADVEQVLVPSV | not soluble |
| MGSDKIHHHHHHMANPQSPHATLQLPQGMEITAEIKPGYDAILTREALELVAALHRTFEPRRQQLLQARAERTKRLDAGERPDFLAETKSVREGDWKIAPLPQDLQCRRVEITGPVERKMIINALNSGADSYMTDFEDSNAPSWDNQITGHINLKDAVRRTISLEQNGKSYALNDKVATLIVRPRGWHLDEKHVKVDGKRVSGSIFDFALFMVHNAKELLARGSGPYFYLPKMESHLEARLWNDIFVAAQEAVGVPRGTIRATVLIETILAAFEMDEILYELREHSSGLNAGRWDYIFSAIKKFKSDRDFCLADRSQITMTSPFMRAYALLLLKTCHRRNAPAIGGMSALIPIRNDPAANDKAMAGVRSDKARDAGDGYDGGWVAHPGLVAIAMEEFVKVLGDKPNQIGKQRDDVLVTATDLLDFRPETPITENGLRNNINVGIHYLGAWLTGNGCVPIHNLMEDAATAEISRSQVWQWIRSPKGKLDDGRKVTAELVRAMSAQELDKVKQAVGGDTKPYERAAQIFEEMSTSEQFTDFLTLPLYEEI | not soluble |
| VGDLYYHVGVNATFIKNELTEVNGSRDEWQGFNPHAKGTITYAKTGHSIGYFNLIKTDGVFQSQQEIDAYVDKNGNKIQPNAQPGDLRFVDYNGDGKIDNNDRQDVGSAFPKVNLGVSLGAEWKGLDLNMFFDGNFGNKIYNAQYYSTVYNESTGNQYAERMNSWTENNHSDIPRCLFGTSDPNGTNWGYTDRWLENGSFLRLKTLELGYTLPKVWVSKAGLQNVRVYTAMENLFTITDYKGYTPDLGMVDADGAGTSGGSGVMTRGCDDGRYPMARTITFGLQVNF | not soluble |
| MRPLKISRDELLQRCAGTFRRYGYHGTTMEMLSSACGLTKASFYHHYPNKEALLRDVLEWTHQRLAETLFSIAYDPLLTPRERLEKLGRKAARLFQDDSIGCLMGVVAVDASYGRSELMAPIRSFLDDWAQAFAQLYRPAFDEAQALERGRQLVADFEGAILLARIYGEPGYIDGVTRRALEQLAG | not soluble |
| MADKLAFTTADLVTCLICIREFDTKTRKPKVLHCGHTVCEECTDNLRDFNAPLLVVRCPTCRQFTKRPVAESCNTNFQLMGYLAEKEKFEREKKAKGGKPKKPDQVLTLKMARSNRMEIHVASKKDLEGPELYLRKDSEGNTHIVVAGLTGSPAEVMKFITENGISIETGVLMPQVVYDEGRTRGGTEKFAKVNSMAAGQSAIKCTKPPVKLEELEFHKTFELKVSEESGSLKMELVQKEEVPKNGFGVFEGCMTKPSAKRLKEFTDSCPGTSAEDEVQVIEPEPLPKRRRTRK | not soluble |
| MNDVDVLVVGAGALGLACAARLAEAGHGVLVAERERLVGSHTSSRNSEVIHAGLYYPPGSLKADLCLEGRERLYAWCARHGVGHRRIGKLLVAVEENERERLQALAANARACGVDDLMPLDGTTLRALEPQVRGVAALLSPSTGIIDSHAYLQSLQAVAERHGAQLALDTRVDRLERHAGGWRAEGQSVGEAFRLRAGWVVNAGGLFAQALAQRTEGLDPRLVPALHLCQGRYFSYSGRSPFRHLVYPMPEARTAGLGIHATLDLGGQLRFGPDVNYVDNLDYRVDESLRPAFAQVISRYFPGIDPRRLAAGYAGIRPKLGGPGEPAADFIIQTPAEHGLPGLVNLFGIESPGLTASLALAERVARALLEHHHHHH | not soluble |
| GGMEVLDLVTGPDSVTEIEAFLNPRMGQPPTPESLTEGGQYYGWSRGINLATSDTEDSPGNNTLPTWSMAKLQLPMLNEDLTCDTLQMWEAVSVKTEVVGSGSLLDVHGFNKPTDTVNTKGISTPVEGSQYHVFAVGGEPLDLQGLVTDARTKYKEEGVVTIKTITKKDMVNKDQVLNPISKAKLDKDGMYPVEIWHPDPAKNENTRYFGNYTGGTTTPPVLQFTNTLTTVLLDENGVGPLCKGEGLYLSCVDIMGWRVTRNYDVHHWRGLPRYFKITLRKRWVKNPYP | soluble |
| MTTLIISDLHLDPLRPVVTELFLRFLREQVSGADALYILGDLFEIWIGDDMPSEVADMVVAALRTHADAGTPLYFMPGNRDFLVGADYAARAGFRILPDPCVVDLYGEPTLLLHGDLLCTDDIAYQAFRAQTRDPEFIAQFLTQTLSARLAFAQQARLASHAHQSGLKQENDSTQFEKITDVVPADVAAMFACYGVNRMIHGHTHRPALHMLQVAECACTRVVLGDWYQQGSVLCVDADGLVLEQLLLP | not soluble |
| MMPAHETYDVIVVGAGAGGMTAAAVAAAEGLSVLVIEKTAFVGGTTAWSDGMVWIPANPKMKAAGLSDSVADAVQYLSSTVPEPANAGLRAAFLARGPEAVTYLEAKTEVRFLPVKTCPDYYPERLGATSGGRALEPVAFDGTRLGRAFARLRPPLPEFTLFGGMMVNRLDIPHLRRIGKSLRSTLRAARLVSEYMMQRLRSPRGTTLHLGNALAARLYASLLARQGEILFSADVEDLSMQGDRVSGVVIRHGSRDRAIAARRGVVLATGGFSHDAALRKRFFPPAAGFVSATSPSGTGDGLRLAATAGAALNTEATSPAYWVPASLFRRADGSRGVFPHTVTDRAKPGVIAVNAAGRRFVNEALSYHEFVLAMLRDGHGEPDRPFYLICDRQFLWSYGLGRIKPFTRNFRRYVASGELVEAPDITQLAAKIGIKPSVLTATIAAYNIDAKEGRDPEFGRGTTIYQRHLGDISHKPNPCVAPILRAPYFALRIYPADLGTAIGMKVDAQARVLRGDGTPIAGLYACGNDMGSIMNGNCPGPGITLGPALTFGYIAGRHLAEGGVTRELAKEQMLEHHHHHH | not soluble |
| GSSQISDMTRDGLANKALAVARTLADSPEIRQGLQKKPQESGIQAIAEAVRKRNDLLFIVVTDMQSLRYSHPEAQRIGQPFKGDDILKALNGEENVAINRGFLAQALRVFTPIYDENHKQIGVVAIGLELSRVTQQINDSRW | soluble |
| MQAHQSLHPSSAYLLDPRDTHHFIRKPTISMETTTEIPAGGATSLLPIVRAAKTPPIPLTVPCAIAGVMMEFECLLRGKRMLVNAMVYNVKTTIAGHPWE | not soluble |
| MQTASVPAGIAERRTRAWAPYIDAKLGFRNHWYPVRLSAEVAEASPVPVQLLGEKVLLNRVDGVVHAIADRCLHRGVTLSDKVECYSKATISCWYHGWTYRWDNGKLVDILTNPTSVQIGRHALKTYPVREEKGLVFLFVGDQEPHDLAEDVPPGFLDADLAVHGQHRVVDANWRMGVENGFDAGHVFIHKSSILLDGNDIALPLGFAPGDPEQLTRSVTGEGAPKGVFDLLGEHSVPIFEATIEGQPAIQGHMGSKMVAISISVWLPGVLKVDPFPDPTLTQFEWYVPIDEGHHLYLQMLGRRVGSEEEARSFEAEFREKWVELALNGFNDDDILARRSMEPFYADDRGWREEVLFESDRAIIEWRRLASQYNRGIQTRDVRHHHHHH | soluble |
| MSYITKQDKVIAEAIEREFQRQNSNIELIASENFVSEAVMEAQGSVLTNKYAEGYPGRRYYGGCEFVDVTESIAIDRAKALFGAEHVNVQPHSGSQANMAVYLVALEMGDTVLGMNLSHGGHLTHGAPVNFSGKFYNFVEYGVDKDTERINYDEVRKLALEHKPKLIVAGASAYSRTIDFKKFKEIADEVNAKLMVDMAHIAGLVAAGLHPNPVEYADFVTTTTHKTLRGPRGGMILCKEEYKKDIDKTIFPGIQGGPLEHVIAAKAVAFGEALENNFKTYQQQVVKNAKVLAEALINEGFRIVSGGTDNHLVAVDVKGSIGLTGKEAEETLDSVGITCNKNTIPFDQEKPFVTSGIRLGTPAATTRGFDEKAFEEVAKIISLALKNSKDEEKLQQAKERVAKLTAEYPLYQ | not soluble |
